Article PMC4701444 (PLoS ONE, 2016)
Bridge positions count the residues as written; N and C are the ends. Ends that are not written are not given here. * marks the point of attachment. 5FAM = O=C1OC2(c3ccc(O)cc3Oc3cc(O)ccc32)c2ccc(C(=O)*)cc21

B1: F*PfRON2sp1 (39 aa) [2021-2059], fluorescein-labeled PfRON2sp1 peptide (peptide)
peptide: 5FAM-DITQQAKDIGAGPVASCFTTRMSPPQQICLNSVVNTALS
modifications: disulfide 17-29
notes: Rhoptry Neck Protein 2 (RON2) of Plasmodium falciparum, residues 2021-2059; also called labeled peptide; labeled probe; source: synthetic peptide, bought: Kinexus (purity ≥ 95%)
B3: PfAMA1 (DI-DII of Plasmodium falciparum Apical Membrane Antigen 1, 3D7, residues 104-438) (domain or fragment)
chain: NYMGNPWTEYMAKYDIEEVHGSGIRVDLGEDAEVAGTQYRLPSGKCPVFGKGIIIENSNTTFLTPVATGNQYLKDGGFAFPPTEPLMSPMTLDEMRHFYKDNKYVKNLDELTLCSRHAGNMIPDNDKNSNYKYPAVYDDKDKKCHILYIAAQENNGPRYCNKDESKRNSMFCFRPAKDISFQNYTYLSKNVVDNWEKVCPRKNLQNAKFGLWVDGNCEDIPHVNEFPAIDLFECNKLVFELSASDQPKQYEQHLTDYEKIKEGFKNKNASMIKSAFLPTGAFKADRYKSHGKGYNWGNYNTETQKCEIFNVKPTCLINNSSYIATTALSHPIEVE
notes: codon-optimized synthetic gene; also called native PfAMA1; PfAMA1 DI-DII construct

Tests used:
PfAMA1 [1] = conditions: Room temp; ref [23]; read-out: SPR Kd; cited from earlier work
Source text: Table 2 Comparison of equilibrium dissociation constants (Kd) of complexes. | column: SPRKd (nM) / Room temp

ΔDII-PfAMA1 = experiment: Isothermal Titration Calorimetry, ΔDII-PfAMA1; format: binding, Plasmodium falciparum; conditions: 25°C; ΔDII-PfAMA1 10 μM, PfRON2D3-TRX 110 μM; 20 mM Hepes pH 7.5, 150 mM NaCl; average of two experiments with standard deviation; read-out: ITC Kd
Description: (§1) Purified PfAMA1, ΔDII-PfAMA1, and PfRON2D3-TRX were dialyzed against ITC buffer (20 mM Hepes pH 7.5, 150 mM NaCl) at 4°C. All ITC experiments were carried out at 25°C on a MicroCal iTC200 instrument. The sample cell contained PfAMA1 or ΔDII-PfAMA1 (10 μM), and PfRON2D3-TRX (110 μM) was added in 17 injections of 2.2 μL each. […] Data were processed using Origin software (MicroCal) and the dissociation constants (Kd) were determined using a one binding site model.

PfAMA1 [2] = molecular target: T1, PfAMA1 (Plasmodium falciparum, UniProt Q7KQK5); experiment: Isothermal Titration Calorimetry, PfAMA1; format: binding; conditions: ITC, 25°C; which AMA1 construct not stated
T1 construct: (residues 104–438); hexa-histidine (cleaved yes); made in house; host or cells: insect cells (modified pAcGP67B vector)
T1 sequence (Q7KQK5 104-438): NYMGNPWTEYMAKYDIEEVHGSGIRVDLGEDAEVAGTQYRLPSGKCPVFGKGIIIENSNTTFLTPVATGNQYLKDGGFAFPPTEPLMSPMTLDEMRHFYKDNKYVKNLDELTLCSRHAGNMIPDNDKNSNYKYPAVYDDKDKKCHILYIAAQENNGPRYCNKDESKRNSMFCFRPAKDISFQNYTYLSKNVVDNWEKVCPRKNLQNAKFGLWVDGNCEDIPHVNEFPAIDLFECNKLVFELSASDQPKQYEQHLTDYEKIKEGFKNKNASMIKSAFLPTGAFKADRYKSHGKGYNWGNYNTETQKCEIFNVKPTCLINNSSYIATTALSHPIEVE
Description: as §1

[3] = molecular target: B3; experiment: fluorescence polarisation; anisotropy titration at 30°C; 10 nM F*PfRON2sp1 titrated with protein (0 to 10 μM); PBS pH 7.4, at least 0.1% BSA; conditions: both partners purified
[4] = molecular target: B3; experiment: fluorescence polarisation; anisotropy kinetics at 25°C; association: 10 nM labeled probe with 50, 100, 200 nM protein; dissociation: 10 nM preformed complex challenged with 2500 or 5000 nM unlabeled PfRON2sp1; global fit to a one-intermediate model; PBS pH 7.4, at least 0.1% BSA; conditions: both partners purified
[5] = molecular target: B3; experiment: fluorescence polarisation; anisotropy titration at 25°C; 10 nM F*PfRON2sp1 titrated with protein (0 to 10 μM); PBS pH 7.4, at least 0.1% BSA; conditions: both partners purified
[6] = molecular target: B3; experiment: fluorescence polarisation; anisotropy kinetics at 20°C; association: 10 nM labeled probe with 50, 100, 200 nM protein; dissociation: 10 nM preformed complex challenged with 2500 or 5000 nM unlabeled PfRON2sp1; global fit to a one-intermediate model; PBS pH 7.4, at least 0.1% BSA; conditions: both partners purified
[7] = molecular target: B3; experiment: fluorescence polarisation; anisotropy titration at 20°C; 10 nM F*PfRON2sp1 titrated with protein (0 to 10 μM); PBS pH 7.4, at least 0.1% BSA; conditions: both partners purified
[8] = molecular target: B3; experiment: fluorescence polarisation; anisotropy kinetics at 30°C; association: 10 nM labeled probe with 50, 100, 200 nM protein; dissociation: 10 nM preformed complex challenged with 2500 or 5000 nM unlabeled PfRON2sp1; global fit to a one-intermediate model; PBS pH 7.4, at least 0.1% BSA; conditions: both partners purified
[9] = molecular target: B3; experiment: ITC; 25°C, MicroCal iTC200; cell: PfAMA1 or ΔDII-PfAMA1 (10 μM); syringe: PfRON2D3-TRX (110 μM), 17 injections of 2.2 μL; 20 mM Hepes pH 7.5, 150 mM NaCl; one binding site model; conditions: both partners purified
[10] = molecular target: B3; experiment: as above; conditions: both partners purified; remark: listed apart in the source
[11] = molecular target: B1; experiment: fluorescence polarisation; anisotropy kinetics at 20°C; association: 10 nM labeled probe with 50, 100, 200 nM protein; dissociation: 10 nM preformed complex challenged with 2500 or 5000 nM unlabeled PfRON2sp1; global fit to a one-intermediate model; PBS pH 7.4, at least 0.1% BSA; conditions: both partners purified
[12] = molecular target: B1; experiment: fluorescence polarisation; anisotropy kinetics at 30°C; association: 10 nM labeled probe with 50, 100, 200 nM protein; dissociation: 10 nM preformed complex challenged with 2500 or 5000 nM unlabeled PfRON2sp1; global fit to a one-intermediate model; PBS pH 7.4, at least 0.1% BSA; conditions: both partners purified
[13] = molecular target: B1; experiment: fluorescence polarisation; anisotropy kinetics at 25°C; association: 10 nM labeled probe with 50, 100, 200 nM protein; dissociation: 10 nM preformed complex challenged with 2500 or 5000 nM unlabeled PfRON2sp1; global fit to a one-intermediate model; PBS pH 7.4, at least 0.1% BSA; conditions: both partners purified
[14] = molecular target: B1; experiment: as above; conditions: both partners purified
[15] = molecular target: B1; experiment: as above; conditions: both partners purified

For “PfRON2D3: thioredoxin fusion of PfRON2D3 (Asp2021 to Ser2059) produced in E. coli BL21 cells”, which Kd (PfAMA1 [1]) is on record?
The Kd was 0.0203 ± 0.0063 µM.

And the Kd (ΔDII-PfAMA1)?
Its Kd is 0.0926 ± 0.0064 µM.

Which “binding of TRX negative control” value (PfAMA1 [2]) does the source give for “TRX: thioredoxin, injected as a negative control in ITC” here?
Its value is “no detectable binding”.

With B1 as the molecule, how does the Kd [3] read?
The Kd was 0.061 ± 0.005 µM.

And the Kd [4]?
Its Kd is 0.0382 ± 0.01 µM.

What about the Kd [5] of the same molecule?
Its Kd is 0.043 ± 0.003 µM.

What about the Kd [6] of the same molecule?
The Kd was 0.0323 ± 0.008 µM.

And the Kd [7]?
The Kd was 0.031 ± 0.002 µM.

And the Kd [8]?
The Kd was 0.0438 ± 0.011 µM.

B2: PfRON2D3-TRX (thioredoxin fusion of PfRON2D3, amino acids Asp2021 to Ser2059) (domain or fragment)
chain: DITQQAKDIGAGPVASCFTTRMSPPQQICLNSVVNTALS
notes: Modified pET32a vector with N-terminal hexahistidine and thioredoxin tags and a thrombin cleavage site; the fusion was used uncleaved in ITC; also called TRX-fused peptide; not shown: thioredoxin (TRX), N-terminal, kept
With B2 as the molecule, how does the Kd [9] read?
The Kd was 0.0429 µM.

And the dH [10]?
The dH was -50.63 ± 0.418 kJ/mol.

For B3, which “complex half-life (calculated from the one-intermediate model)” value [11] is on record?
The value was 28.8 min.

What about the “complex half-life (experimental)” value [11] of the same molecule?
The value was 27.3 min.

What about the “complex half-life (calculated from the one-intermediate model)” value [12] of the same molecule?
The value was 9.07 min.

And the “complex half-life (experimental)” value [12]?
Its value is 9.23 min.

What about the “complex half-life (calculated from the one-intermediate model)” value [13] of the same molecule?
The value was 16 min.

What about the “complex half-life (experimental)” value [13] of the same molecule?
Its value is 15 min.

And the “dH of step 1 (formation of the intermediate)” value [14]?
The value was -2.8 kJ/mol.

And the “dH (overall, summation of the transition states from the kinetic fit)” value [15]?
The value was -48.7 kJ/mol.
